This note sets out measurements from publication PMC11655644, “Cardiocutaneous syndrome is caused by aggregation of iASPP mutants” (Cell Death Discovery, 2024).

As usually defined, the Kd is a measure of binding affinity in units of concentration.

The target in series [1] is iASPP CTD N813A Y814A double mutant (human) (UniProt Q8WUF5). The series is described as follows: ITC; VP-ITC, 12 °C, 25 steps of 10 µl; 450 µM iASPP CT peptides titrated to 30 µM purified ASPP CTDs; 25 mM HEPES pH 7.5, 150 mM NaCl, 500 µM TCEP.
The target in series [2] is iASPP CTD WT (C-terminal domain, AA625-828) (human) (UniProt Q8WUF5). Described as above.
For series [3], the target named is T1, iASPP CTD WT (C-terminal domain, AA625-828) (human, UniProt Q8WUF5 625-828).
T1 construct: iASPP (encoded by PPP1R13L), C-terminal domain with four ankyrin repeats and an SH3 domain, AA625-828 (CTD starting from L625); also called iASPP WT CTD; source: E. coli BL21(DE3) Rosetta, purified (IMAC, TEV cleavage, reverse Ni, HiTrap Q, Superdex 75 SEC); not shown: His10, N-terminal, cleaved
T1 sequence (looked up): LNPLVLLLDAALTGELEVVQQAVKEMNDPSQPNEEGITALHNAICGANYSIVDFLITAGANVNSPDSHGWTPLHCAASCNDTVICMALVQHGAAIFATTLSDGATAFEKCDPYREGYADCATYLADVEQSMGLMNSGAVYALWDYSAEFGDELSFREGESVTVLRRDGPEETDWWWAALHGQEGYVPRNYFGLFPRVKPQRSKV
The experiment in a line: thermal shift assay; 20 µM CTD with SYPRO Orange and 20 or 40 µM PP1α (AA311-330) peptide in assay buffer; 4 to 99 °C at 0.1 °C/s. Conditions: both partners purified.

Turning to “iASPP A620P peptide spanning the sequence around the mutation”, the results for the Kd in series [1] and in series [2] were 5 µM and 135 nM, respectively.

As for “iASPP WT peptide spanning the sequence around A620”, the Kd amounted to 5 µM in series [1] and 743 nM in series [2].

B1: PP1α (AA311-330) peptide (peptide, UniProt P62136 311-330, looked up)
peptide: GLNPGGRPITPPRNSAKAKK
notes: PP1α (protein phosphatase 1 catalytic subunit alpha), peptide AA311-330; also called PP1α peptide
Regarding B1, the “increase of the melting temperature with peptide” value in series [3] is 10 °C.
